{
  "source": "paper PMC8387475",
  "target": "UBR5 (UniProt O95071)",
  "test": "co-immunoprecipitation, immunoblot",
  "settings": "reference: wild type SIRT7; sites T255,S259",
  "data": [
    {"substance": "SIRT7 (from UniProt Q9NRC8) SIRT7-2A (T255A/S259A)", "values": [
      {"measurement": "binding against the reference", "result": "stronger"}
    ]}
  ]
}
